The DeepSol protein solubility set

Assay: soluble on expression in E. coli; label from the status in PepcDB or PDB records

**Q.** With “GPGSMQFTVEQIRSVRNNYLEPPYPGFSLDEVVRRRRLTQTKLVRGENAWVAKGTAQTTEEWVQRLLHGTLNKLTEENKDIMIDKLLTKELFATEDIMNMVVNIIFKKALDEPENSKLYAGVCHSLALYEAKVLRDGHKGERPQSQLRDAIISTAQHEFRTLSKELSKMEDKSEEELEYERSNVMRRKRSNMRFIGELYLCTALTHSTMFTVMDLTMRCSDKTGFPSSENIELLAALLNTIGDRLDKNHKKTLDPYFTSLENFNKKSDCPYPPRIRFKIMDLLDLRKRGWGLKPKPVKAALPPSHGKDKKYATAPPPKKGGRDQGSAAAASKSWRDAATTKTGTAAAPAPSADKGLNGRGTSSAAPAANTAALSSSSASTAAATAPAGASFRDEASPQVPLVKFELRVASMFQEWVADRTNDVILHWVDQFNTCDRFFESESELCVAVAQEVIHSACTTTRKDAQREAFSFLVVGLYMIDTEVFDGFASALASAIEDGLLEDVPKFGERFMSMLRLTSTEQETRADVYFDAANVLRLTYNRLESPDDSAVDTLMSFWDRVPLPSTDEENMIRMDLDVVYSLCNPEGVQDGLEKLLSRIIHSMLQMQLMDAEVLDEFLCLDVEDGLCAKVIADYKERFPK” as the sequence, how does the “soluble on expression in E. coli” value read?
**A.** soluble

**Q.** Which “soluble on expression in E. coli” value does the source give for “DGFRIAFISDLHYKSLFKEKGLESLVRLLNAQHADVLLMGGDYQEGCQYVPELFAALAKVKTPMGTYGVMGNNDYERCHDEIIREMQRYGMRPLEHQIDTLRRDGAQIILAGVRNPFDLANNGVSPTLSLSPSDFVILLVHTPDYAEDVSVANSDLVLAGHTHGGQVRILGYAPIIPSHYGSRF” here?
**A.** not soluble

**Q.** Which “soluble on expression in E. coli” value does the source give for “RAVDNAEPAALETSTRTIPTNGRTMTPVQATYWVGRQPDYALGGIATRFYMEHDITIDGPMDEWIDALRRSWNTVVQRHGMLRATVDRDGKISIADTVTEHPLPVHNADHAAEVRERLAHRTADLGTWPVHDIELTTITATTVRIHCGFDVILIDYPSIMRVLNDWGRALAGYDLGTEDTSFSDLIAQGIAEPCPSDEAYWRERAPRLLPGPLDLAEMTYDAATTPEFHRHTRTIAAQQWKQFVDNAHAHGTNASSALLAVAAHSLRHVGPRRSFTLGATFFSPDVLEHGPVGDFTRTGVVELPDTADTFAQQASAAQHELWEAFDHASVTSADIMRWRNSDTTGQALPDYPVVFTSALGHGDSTDWPGVMTWGVSQTPQVLMDLLHWESDGDLVLAWDCVDAALPENFADNAIDIAYAVIQQLTNPAVWTDPTVVADPWLRMPGPMERIGESELIDAPLRA” here?
**A.** not soluble

**Q.** Which “soluble on expression in E. coli” value does the source give for “MIGQEFRQLLIDKWGYSYDVQLRRTQGKIFLQVMWKYLEQASFPLSESQYQEHLDSITNYLNALGGTIQVQTFITQTKERPRLGKAVSIPLDLGDRSSEWIL” here?
**A.** not soluble

**Q.** With “MDGMGTLTRYLEEAMARARYELIADEEPYYGEIPDLPGVWATGKSLKECEANLQAALEDWLLFLLSRGETPPPLGEVRIELPHGEAA” as the sequence, how does the “soluble on expression in E. coli” value read?
**A.** soluble

**Q.** With “MKIAVVGGGIVGLSTAFELSSRGHSVHVFDPNPASGASHFAGGMLAPAAEVQFQQDPLFPLMKRAGKLWPDMVRRVAQRTNLPTGYRTEGTLVVAADRADAEHLKQLRATQEAAGMDVRPITTRQARGLEPALGPRLSAAVHIPNDTQVAPRVFLTALLDALDDCGVGVIKEKITDLEPLYQQFD” as the sequence, how does the “soluble on expression in E. coli” value read?
**A.** not soluble

**Q.** For “MASRRELKKNVNYIAGELFTECLINSMFIPGTDKAKADELMAEVLRMQDEFVSRISHTEPGNVKGFYKKFRVDFNAKVNEIIEAIGKLN”, which “soluble on expression in E. coli” value is on record?
**A.** not soluble
